Laboratory results as given in US20220112525A1, “BIOSYNTHESIS OF VANILLIN FROM ISOEUGENOL” (Conagen Inc., priority 2019, published 2022).

Tests used:
[1] = Enzyme assay in vitro with 4,4'-dihydroxy-3,3'-dimethoxystilbene as substrate, vanillin detected by HPLC; format: biochemical; conditions: 30° C., 50 mM Tris-HCl pH 8.5, substrate 200 μM
Procedure: The activity of FfLSD was determined by two substrates, 4,4′-dihydroxy-3,3′-dimethoxystilbene and isoeugenol, respectively. For measuring the activity toward 4,4′-dihydroxy-3,3′-dimethoxystilbene, the activity was assayed at 30° C. in 2.5 ml of 50 mM Tris-HCl buffer (PH 8.5) containing suitable amounts of enzyme solution. The enzyme reaction was started by addition of substrates dissolved in 10 μL of N,N-dimethylformamide (DMF) to a final concentration of 200 μM. The reaction product, vanillin, was detected with HPLC analysis.

[2] = Enzyme assay in vitro with isoeugenol as substrate, formation of vanillin by HPLC; format: biochemical; conditions: 10 mM isoeugenol, 10 min
Procedure: The activity was also measured with isoeugenol by measuring the formation of vanillin. The reaction mixture contained 10 mM isoeugenol, 100 mM potassium phosphate buffer (pH 7.0), 10% (v/v) ethanol and an appropriate amount of enzyme, in a total volume of 1 ml. The reaction was started, by adding isoeugenol as ethanol solution, carried out at 30° C. for 10 min with reciprocal shaking (160 strokes min^−1) and stopped with 1 ml of methanol. After centrifugation at 21,500, the supernatant was analyzed by HPLC for the determination of isoeugenol, vanillin, vanillyl alcohol. FfLSD enzyme treated in boiling water for 5 minutes was used as the negative control.
Almost all isoeugenol added to the reaction mixture was converted to vanillin (top panel). As expected, no vanillin was produced with the negative control (bottom panel).

- activity toward 4,4′-dihydroxy-3,3′-dimethoxystilbene [1]: did not show activity
- isoeugenol added to the reaction mixture converted to vanillin ([2]; pH 7.0, 30° C., HPLC (FIG. 6)): Almost all
- activity toward isoeugenol ([2]; potassium phosphate pH 7.0, 30° C.): high activity
B1: FfLSD: putative lignostilbene-α, β-dioxygenase from the fungus Fusarium fujikuroi, 522 amino acids (SEQ ID NO: 2), recombinant, His-tagged (protein, listed as Fusarium fujikuroi)
chain: MSAPEEHHGLKSKWPQAFDLAGSNSPCRIEGEIGDLVVLGEIPPAIDGTFYRVMCDPFVPPHPDNVPLDGDGHVSAFRIYNGRVDMKIKYVETERYKLERKAGKALFGLYRNPFTHHPCVRAAVDSTANTNMVYWADRLLALKESALPYEMHPDTLETLCYDPFGGQVKAKAFTAHPKIDPFSDELVVYGYEAKGLATRDIVIYSLDKNGIKHDEQWIESPWCAPIHDCVITPNFIVLILWPFEASVERMKAGKQHWAWDYSLPATFIVVPRRKTSKIPASWKQGEHRVYHWKNCMNIHAGSAWEEDNGKLYLETSRVHDNAFPFFPPVDGRMPAPDAKADFVRWEIDLNAPSGTQMADPEVILDVPSEFPRIDERFMTKRNEYLFLNVFIPETSQGGTNIFHGLNGLAMHNHSTGETKWFFAGKDSLVQEPIFIPRTADAPEGDGWVIAMLERRVANRSELVVLDTREFEKPVAFIQLPMHLKAQVHGNWIDSRTRASTEAIVRQIGEVKVSARGALEPLA
modifications: His tag
